Experimental data: US11719696B2, “Methods and compounds for diagnosing threonyl-tRNA synthetase-associated diseases and conditions” (The University of Vermont and State Agricultural College, priority 2012, dated 2023)

Experiments:
[1] = tested on: chorioallantoic membrane (CAM); test: Chick chorioallantoic membrane (CAM) assay; assay type: in vivo, chicken
Experimental: Chick Chorioallantoic Membrane Assay—Fertilized chicken eggs (Sunrise Farms, Catskill, N.Y.) day 1-2 post-laying were incubated in a humidified incubator at 37° C. for 72 h. Cleaned eggs were cracked and plated in a sterile 10 cm^2 tissue culture-treated dish and incubated at 37° C. for another 7 days. On developmental day 10, 1 mm sterile gelatin sponge pieces (Surgifoam®; Johnson & Johnson Wound Management, Somerville, N.J.) were placed within the outer one-third of the membrane between large vessels. 40 μg/ml human bFGF and 2 μg/ml human VEGF were used as pro-angiogenic control compounds; 100 μg/mL retinoic acid (Sigma-Aldrich, St. Louis, Mo.) diluted in phosphate-buffered saline (PBS) was used as an angiostatic control. All compounds were applied in 10 μl to the CAM every 24 h for 72 h. Images were taken using a Leica MZ6 stereomicroscope every 24 h. Compounds were scored according to a modified version of Intensity Scoring as previously described (Ribatti, Nico et al. 2006). Briefly, each experimental condition was given a blinded score from 0-5 based on the change in the extent of vessel convergence and formation in proximity to the sponge from day 0 to day 3. Total score is averaged individual experimental condition scores from at least 15 replicates.
Fertilized chicken embryos were cultured ex-ova and, starting at developmental day 10, agents were applied daily to gelfoam sponges on the CAM. Images were recorded daily over 72 h and scored blindly according to a modified version Intensity Scoring as previously described (Ribatti, Nico, 2006). Additional details regarding methods are provided in the Methods and Materials section of Example 1.

HUVECs [2] = test: Endothelial cell proliferation assay (alamarBlue); assay type: cell-based, Human; settings: HUVECs in low serum (0.2% FBS) media
Experimental: Endothelial Cell Proliferation Assay—The […] alamarBlue® (Invitrogen) reagent was used to assess cell proliferation (Ahmed, Gogal et al. 1994). HUVECs were seeded in a 96-well dish (1×10^3 cells/well) and grown for 48 h in EGM®-2 media. Cells were incubated in 0.2% FBS EGM®-2 media or EGM®-2 complete media as indicated; VEGF (50 ng/ml) and media alone served as controls. After 48 h, 72 h, or 96 h in culture, 10 μl/well premixed alamarBlue® (Invitrogen) was added and after 3 h at 37° C. the amount of reduced alamarBlue® was quantified by fluorescence (excitation at 530 nm, emission at 590 nm) on a microplate reader (Synergy™ HT, BioTek, Winooski, Vt.).

HUVECs [3] = test: VEGF secretion by ELISA; assay type: cell-based, Human; settings: purified recombinant TARS added to cell media, 24 h
Experimental: ELISA and Lactate Dehydrogenase Assays—Confluent HUVEC cultures (passage 4) were incubated at 37° C. in Clonetics® EGM®-2 modified with 0.2% fetal bovine serum with the addition of 50 ng/ml human VEGF or 50 ng/ml human TNF-α for 6 h as indicated. Culture media supernatants were tested for levels of secreted TARS protein using the Threonyl tRNA Synthetase (TARS) ELISA Kit (USCN Life Science, Wuhan, Hubei, PRC) according to manufacturer's instructions. Cell membrane integrity was confirmed using the lactate dehydrogenase assay CytoTox-ONE™ Homogeneous Membrane Integrity Assay (Promega, Madison, Wis.) according to manufacturer's instructions and reported as percent cytotoxicity relative to a lysis control. Levels of secreted VEGF were measured using the Human VEGF ELISA kit (Thermo Scientific) per manufacturer's instructions.

[4] = tested on: Human umbilical vein endothelial cells (HUVECs); test: In vitro endothelial tube formation assay; assay type: cell-based; settings: 100 nM purified recombinant protein in low-serum media (0.2% FBS), 6 h
Experimental: In vitro Tube Formation Assay—Tube formation assays were performed as described (Arnaoutova and Kleinman 2010; Cassavaugh, Hale et al., 201). Human Umbilical Vein Endothelial Cells (HUVECs) were seeded in 48-well plates (1.5×10^4 cells/well) coated with 100 μl of Matrigel™ Basement Membrane Matrix Growth Factor Reduced (BD Biosciences, San Jose, Calif.) and incubated in Clonetics® EGM®-2 complete media (Lonza, Annandale, N.J.) or EGM®-2 with reduced serum (0.2% fetal bovine serum). Cells were incubated at 37° C. for 6 h then fixed in 10% formalin. Fixed samples were imaged by phase-contrast microscopy or stained with Oregon Green 488 Phalloidin (Molecular Probes, Eugene, Oreg.) then imaged with fluorescence microscopy (2× objective). Number of tubes and tube lengths (in pixels) were quantified using the Simple Neurite Tracer (Longair, Baker et al. 2011) plug-in on ImageJ software (NIH). Statistical analysis of one-way ANOVA was performed with GraphPad Software. Multiple comparisons were performed using the Tukey Test.

B1: TARS: N-terminal His6-tagged human threonyl-tRNA synthetase expressed and purified from E. coli (protein, UniProt P26639 1-723, looked up)
Threonine--tRNA ligase 1, …: MFEEKASSPSGKMGGEEKPIGAGEEKQKEGGKKKNKEGSGDGGRAELNPWPEYIYTRLEMYNILKAEHDSILAEKAEKDSKPIKVTLPDGKQVDAESWKTTPYQIACGISQGLADNTVIAKVNNVVWDLDRPLEEDCTLELLKFEDEEAQAVYWHSSAHIMGEAMERVYGGCLCYGPPIENGFYYDMYLEEGGVSSNDFSSLEALCKKIIKEKQAFERLEVKKETLLAMFKYNKFKCRILNEKVNTPTTTVYRCGPLIDLCRGPHVRHTGKIKALKIHKNSSTYWEGKADMETLQRIYGISFPDPKMLKEWEKFQEEAKNRDHRKIGRDQELYFFHELSPGSCFFLPKGAYIYNALIEFIRSEYRKRGFQEVVTPNIFNSRLWMTSGHWQHYSENMFSFEVEKELFALKPMNCPGHCLMFDHRPRSWRELPLRLADFGVLHRNELSGALTGLTRVRRFQQDDAHIFCAMEQIEDEIKGCLDFLRTVYSVFGFSFKLNLSTRPEKFLGDIEVWDQAEKQLENSLNEFGEKWELNSGDGAFYGPKIDIQIKDAIGRYHQCATIQLDFQLPIRFNLTYVSHDGDDKKRPVIVHRAILGSVERMIAILTENYGGKWPFWLSPRQVMVVPVGPTCDEYAQKVRQQFHDAKFMADIDLDPGCTLNKKIRNAQLAQYNFILVVGEKEKISGTVNIRTRDNKVHGERTISETIERLQQLKEFRSKQAEEEF
modifications: N-terminal His6 tag
notes: N-terminal His6-tagged human threonyl-tRNA synthetase expressed and purified from E. coli
sensitivity of the protein's CAM angiogenic effect to BC194 ([1]; protein co-applied with BC194): sensitive to BC194
CAM vessel formation / vascularization on application of protein ([1]; purified protein applied daily to sponge on CAM, 72 h): stimulated vessel formation
cell proliferation with protein (HUVECs [2]): did not exert a significant effect
secretion of VEGF (ELISA) (HUVECs [3]): did not induce secretion of VEGF
number of tube branches on addition of protein [4]: significantly increased the number of tube branches
